The series deals with T1, His6-DnaA (IV) (Cyanothece ATCC 51142, UniProt B1X0X6 331-455).
T1 sequence: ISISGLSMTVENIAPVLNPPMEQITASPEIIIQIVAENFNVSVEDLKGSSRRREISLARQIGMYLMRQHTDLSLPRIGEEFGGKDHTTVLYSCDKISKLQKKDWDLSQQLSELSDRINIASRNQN
Nature of the series: EMSA; 5-100 nM protein; 3 mM ATP, poly(dI-dC); better affinity than Lbox23; EMSA: 20 mM Hepes/KOH pH 8.0, 5 mM Mg acetate, 1 mM Na2EDTA, 4 mM DTT, 0.2% Triton X-100, 3 mM ATP, 5 mg/mL BSA, poly(dI-dC), 37 C 30 min; footprint: 25 C 30 min, 400 ng probe in 40 uL. Conditions: protein: recombinant; tags: N-terminal His6 (pET-28a, BamHI/HindIII); blunt. On the technique in general: Mobility shift assays separate free from complexed probe on a gel.

B1: Cbox23 (2Box2B, 35 nt) (dsDNA)
DNA 1: CCTTTAAATTTTTCCACAGTTTTTCCACAGCATTA
DNA 2: TAATGCTGTGGAAAAACTGTGGAAAAATTTAAAGG
B1: the binding result is given as “binds”.
